The text below walks through data of patent US20140018288A1, “X-DING-CD4 Peptide” (priority 2012, published 2014).

In data set [1] the test system is EcoHIV (ecotropic HIV-1 EcoNDK). In words: EcoHIV mouse model of HIV infection, Tat and Vif mRNA by qRT-PCR. Type of data set: in vivo, C57BL mice. To be noted: two intraperitoneal doses of 20 μg. The text has this: The mouse model of HIV infection is well-known by persons skilled in the art and is widely used to study therapeutic activities of various pharmaceutical agents. It was generated by using chimeric HIV (EcoHIV), which is a modified HIV that can infect mouse T cells and macrophages and can establish persistent infection of immunocompetent mice after intravenous or intraperitoneal exposure (Potash et al., 2005). The EcoHIV infection mouse model reproduces many characteristics of HIV-1 infection in humans such as virus targeting to lymphocytes and macrophages, induction of antiviral immune responses, neuroinvasiveness, and elevation of expression of inflammatory and antiviral factors in the brain (Potash et al., 2005). […]
In this example, we started with three groups of C57BL mice (groups I, II and III), each group having three mice. […] The amount of EcoHIV-1 virus load was assessed by determining the messenger RNA (mRNA) levels of HIV-Tat and Vif genes by quantitative RT-PCR (qRT-PCR). The amount of HIV-1 Gag DNA in the each sample, which was also determined by qRT-PCR, was used as a quantitative control for the HIV-Tat and Vif mRNA levels. […]

Data set [2] can be described thus: Acute toxicity after intraperitoneal injection in mice. Type of data set: in vivo, mice (B6/SJL). The settings on record: 1-50 μg rX-DING-CD4^pep or 50 μg nX-DING-CD4, 7 days. The method, then:
In the animal tests, eight-week old wild-type mice (B6/SJL) with both genders in each test group were injected intraperitoneally with 1-50 μg of rX-DING-CD4^pep or 50 μg nX-DING-CD4. The nX-DING-CD4 refers to the native form of X-DING-CD4 protein that was purified through IXC chromatography from the extracellular compartment of HIV-1 resistant T-cells. The rX-DING-CD4^pep refers to therapeutic X-DING-CD4 peptide that was expressed in E. coli and purified through Ni-affinity column. Toxicity was assessed by obvious symptoms including diarrhea, ruffled fur, abnormal gait, or loss of more than 10% weight. Animals were weighted before injection and then observed every hour for the first 10 hours after injection; then animals were weighted on 1, 3, 4 and 7 days after X-DING-CD4 administration. […] In its highest administered dose (50 μg—corresponding to 2 μg/G) we exceeded therapeutic dose blocking 95% of HIV promoter activity (by RSA assays) and 90% virus replication (by MAGI assays) (See FIGS. 2 & 3 in Example 2).

Data set [3] relates to HIV-1 LTR promoter. Put plainly: Rapid Suppression Assay (RSA), PMA-induced HIV-1 LTR-driven luciferase in 1G5 cells. Type of data set: cell-based. The settings on record: RSA; for IC50: PMA 5 ng/ml, read-out: IC50, HIV-1 LTR promoter inhibition. An excerpt:
We applied the cell based Rapid Suppression Assay (RSA) for testing X-DING-CD4-induced inhibition of HIV-1 LTR promoter (Lesner et al., 2004; Lesner et al., 2005). Briefly, 1 G5 cells (obtained through the NIH AIDS Research and Reagent Program, Division of AIDS, NIAID, NIH) that are stably transfected with an inducible luciferase gene driven by HIV-1 LTR (Aguilar-Cordova et al., 1994) were washed in PBS, resuspended in hybridoma medium to concentration of 5×10^6cells/ml. For purpose of generating control titration curves, 100 μl aliquots of 1G5 cells were mixed with 100 μl cell culture medium either supplemented with various amount of rX-DING-CD4^pep (SEQ ID No: 1) or no rX-DING-CD4^pep, and incubated for three hours at 37° C. Subsequently, all cells were induced with phorbol 12-myristate 13-acetate (PMA) at a concentration of 5 ng/ml. Two control tubes containing 1G5 cells without rX-DING-CD4^pep treatment were resuspended in hybridoma medium with or without PMA. Three hours later cells were collected by centrifugation and lysed in the same tubes using Reporter Lysis buffer (Promega). The expression levels of luciferase protein in the lysates were determined according to the manufacturer's protocol. The X-DING-CD4^pep inhibition values were established based on the formula: [(LUC1-LUC0)×100/Z]−100; where LUC1 is the value obtained from cells induced by PMA and treated with a specific dilution of X-DING-CD4^pep; and LUC0 is the basal value obtained from the uninduced and untreated cells; Z is the absolute luciferase induction by PMA calculated as Z=LUCmax-LUCO3 where LUCmax is the value of 100% luciferase expression in PMA induced X-DING-CD4^pep untreated cells.
One aspect of the present invention is related to X-DING-CD4 peptide derivatives. Here we obtained 15 derivatives SED ID NOS: 1-15 by recombination or in vitro synthesis. We tested the biological activity of some these derivatives by rapid suppression assay (RSA). In XD-4M, the third amino acid glycine in the native X-DING-CD4 peptide was substituted with the polar amino acid glutamine. In XD-7, the two amino acids, cysteine and valine, replaced the three amino acids, glycine, serine and aspartic acid, in the native X-DING-CD4 peptide. In XD-12 and XD-12sh, the 69th amino acid glutamic acid in the native X-DING-CD4 peptide was methylated. In XD-9, the 69th amino acid glutamic acid in the native X-DING-CD4 peptide was substituted with the amino acid glutamine. The RSA procedure was similar to that described in Example 2. The inhibitory values are plotted in FIG. 5.
We performed the rapid suppression assay (RSA) which tests directly the inhibition of HIV-1 transcription (similar to the procedure described in Example 2), the MAGI assay which tests the inhibition of HIV-1 replication in a single cycle infection (similar to the procedure described in Example 2), and the HIV-1 infection inhibition assay in human PBLs.

Setting [4] is: 1G5 cells, listed as rX-DING-CD4.

Where two headings read alike, the source gives them in different places.

B1: MADINGGGATLPQPLYQTSGVLTAGFAPYIGVGSGKGKLAFLNNDYSQFGTGTKNVHWAGSDSKLTSTELSTYASTKQAAWGKLIQVPSVATSVAIPFNKAGSNAVDLSVDQLCGVFSGRITTWNQ (protein, listed as Homo sapiens)
chain: MADINGGGATLPQPLYQTSGVLTAGFAPYIGVGSGKGKLAFLNNDYSQFGTGTKNVHWAGSDSKLTSTELSTYASTKQAAWGKLIQVPSVATSVAIPFNKAGSNAVDLSVDQLCGVFSGRITTWNQ
A word on the IC50: it is the concentration at which inhibition is half-maximal. Consider B1, for which the “expression of EcoHIV Tat mRNA and vif mRNA versus saline or heat inactivated peptide” value in data set [1] (48 hours) is recorded as “decreased expression”. In addition, in data set [1] (two days after infection), the “transcription of EcoHIV blocked” value is 75%. Moreover, the “obvious symptoms of toxicity (diarrhea, ruffled fur, abnormal gait)” value in data set [2] is listed as “Neither of rX-DING-CD4^pep treatment nor nX-DING-CD4 treatment caused any obvious symptoms”. Also, the “concentration achieving inhibition of 90% HIV-1 LTR transcription” value in data set [3] was determined as 115.1 nM. In addition, in data set [3] (1G5 cells), the “IC95, HIV-1 LTR promoter inhibition, mass concentration” value was found to be 1.52 µg/mL; the “IC95, inhibitory dose blocking 95% transcription events” value was “about 115.1 nM”; the half-inhibitory concentration (IC50) was around 8.18 nM. In addition, in data set [3] (setting [4]), the concentration for half-maximal inhibition (IC50) worked out at 8.2 nM and the “IC95, HIV-1 LTR promoter inhibition, mass concentration” value is given as “(1.514 μg/ml)”. Also, in data set [3] (Table 1), the “IC50, HIV-1 LTR promoter inhibition, mass concentration” value is given as “(0.107 ug/ml)” and the “IC95, HIV-1 LTR promoter inhibition” value worked out at 116 nM.
